Test results as given in PMC5386588.

Biological target: PNR hinge-LBD (131–410) (human) (UniProt Q9Y5X4)
Assay: two-hybrid; as a1, yeast cultured in the presence of the cognate ligand of the AAD partner (T3 for TRβ)

Chain of UniProt Q9Y5X4 (Q9Y5X4 131-410): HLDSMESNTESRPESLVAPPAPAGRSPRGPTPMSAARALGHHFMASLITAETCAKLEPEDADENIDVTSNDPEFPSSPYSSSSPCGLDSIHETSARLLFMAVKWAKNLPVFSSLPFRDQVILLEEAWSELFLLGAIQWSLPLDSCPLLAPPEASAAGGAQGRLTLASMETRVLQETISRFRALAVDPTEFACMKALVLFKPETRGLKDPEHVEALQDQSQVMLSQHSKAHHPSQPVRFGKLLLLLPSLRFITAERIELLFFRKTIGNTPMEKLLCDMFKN

fold induction of reporter activity by T3: 20 fold
Substance: near full-length VP16-TRβ1 construct (from UniProt P10828 1-461) (domain or fragment)
